The text below walks through data of PMC11237593, “Human coronavirus OC43 nanobody neutralizes virus and protects mice from infection” (Journal of Virology, 2024).

Where a chain is given by its changes, count along the chain named.

T1: OC43 S1B+C (S1B and S1C domains of the hCoV-OC43 spike glycoprotein) (human coronavirus OC43, UniProt P36334 321-675)
T1 construct: also called recombinant OC43 S1B+C; recombinant OC43 protein; source: Expi293F, transfected, purified from supernatant (Ni-NTA IMAC, SEC); not shown: His6, C-terminal, cleaved
T1 sequence (looked up): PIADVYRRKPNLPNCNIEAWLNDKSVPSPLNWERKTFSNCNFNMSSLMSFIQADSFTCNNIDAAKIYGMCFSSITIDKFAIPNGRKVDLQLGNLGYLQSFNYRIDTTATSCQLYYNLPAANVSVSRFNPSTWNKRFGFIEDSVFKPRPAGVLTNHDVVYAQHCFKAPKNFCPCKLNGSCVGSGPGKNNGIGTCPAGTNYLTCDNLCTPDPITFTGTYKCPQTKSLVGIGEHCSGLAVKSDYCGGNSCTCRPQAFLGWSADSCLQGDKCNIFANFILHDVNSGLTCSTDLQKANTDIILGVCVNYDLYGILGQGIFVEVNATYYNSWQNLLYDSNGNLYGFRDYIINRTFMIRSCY

B1: WNb 282 (VHH)
VHH: QVQLQESGGGLVQAGDSLRLSCAASGRTFSDYFMGWFRQAPGKEREFVASISWSGGTTYYADSVKGRFTISRDNAKNTVYLQMNRVKSEDTAVYYCAAARDMGWGRTGENEYDYWGQGTQVTVSS
B2: WNb 284 (VHH)
VHH: QVQLQESGGGLVQAGGPLRLSCAASGRTFSDYFMGWFRQAPGMEREFVASISWSGGTTYYADSVKGRFTISRDNAKNTVYLQMNSLKPEDTAVYYCAAAIDYGLGLTVEYEYDYWGQGTQVTVSS
B3: WNb 278 (VHH)
VHH: B2 VHH with P17S, A75T, A98T
B4: WNb 292 (VHH)
VHH: B2 VHH with G16A, P17S, F33A, M43K, S50A, A99N, I100T, T107V, V108R, E109A
B5: WNb 296 (VHH)
VHH: B2 VHH with P17S, M43K, K76N, E89V, A99V, I100A, V108T, E109S
B6: WNb 289 (VHH)
VHH: QVQLQESGGGLVQAGGSLRLSCAASGRTFSDYAMGWFRQAPGKEREFVATISWSGGTTYYADSVKGRFTISRDNAKNTVYLQMNSLKPEDTAVYYCAAVMDLGMLAADGYEYDYWGQGTQVTVSS
B7: WNb 286 (VHH)
VHH: QVQLQESGGGLVQAGGSLRLSCAASGRTFSSYAMGWFHQAPGKEREFVASISWSGGTTYYADSVKGRFTISRDNAKNTVYLQMNSLKPEDTAVYYCAAAVDYGLGLYRVGEYDSWGQGTQVTVSS
B8: WNb 287 (VHH)
VHH: QLQESGGGLVQPGGSLRLSCAASGRTFSFSDYAMGWFRQAPGKEREFVASISWSGGTTYYADSVKGRFTISRDNAKNTVYLQMNSLKPEDTAVYYCAAEIDRGLLLHAVYEYDYWGQGTQVTVSS
B9: WNb 299 (VHH)
VHH: QVQLQESGGGWVQPGGSLRLSCAASGFTFSNYAMGWFRQAPGKEREFVATISWSGGTTVYADSVKGRFTISRDNAKNTVYLQMNSLKPEDTAVYYCAAASDYGMVQMSDYEYDYWGQGTQVTVSS
B10: WNb 297 (VHH)
VHH: QVQLQESGGGSVQAGGSLRLSCAASGRTFSDYAMGWFRQAPGKEREFVASISWSGGTTYYADSVKGRFTISRDNAKNTVYLQMNSLKPEDTAVYYCAADTDYGMGLITVPDFGSWGQGTQVTVSS
B11: WNb 298 (VHH)
VHH: B10 VHH with S11L, A14P, A33F, D99E, T100I, M104L, I107H, T108A, V109A, P110A
B12: WNb 276 (VHH)
VHH: QVQLQESGGGLVQSGGSLRLSCAASGFTFSNYGMMWVRQAPGKGVEWVSRIDSDGTITLYKDSVKGRFTISRDNAKNMLYLQMESLKPEDTALYYCIKVMDWVPGRAPPFRGQGTQVTVSS
B13: WNb 285 (VHH)
VHH: QVQLQESGGGLVQAGGSLRLSCAASGRTFSDYAMGWFRQAPGKEREFVAAISWSGGTTYYADSVKGRFTISRDNAKNTVYLQMNSLTPEDTAVYYCAADYDYGWGRVRVSEYDYWGQGTQVTVSS
B14: WNb 291 (VHH)
VHH: B13 VHH with D31N, A33F, T87K, D99N, Y100T, W104M, R106F, V109A, S110Y
B15: WNb 294 (VHH)
VHH: QVQLQESGGGLVQAGGSLRLSCAASGRTFSSYAMGWFRQAPGKEREFVAAISWSGGTTYYGDSVKGRFTISRDNAKNTVYLQMNSLKPEDTAVYYCAAQGDGGSWFPEGLADFGSWGQGTQVTVSS
B16: WNb 293 (VHH)
VHH: B15 VHH with L11S, G16D, A23V, M34L, Q39R, G61A, Q99L, G100W, F106Y, A111S
B17: WNb 281 (VHH)
VHH: QVQLQESGGGLVQAGGSLRLSCAASGRTFSDYFMGWFRQAPGKEREFVTAISWSGGSTYYADSVKGRFTISRDNAKNTVFLQMNSLKPEDTAVYYCAAALDEGWARVAGPEYDYWGQGTQVTVSS
B18: WNb 288 (VHH)
VHH: B13 VHH with A33F, T57S, F68S, T87K, Y100H, Y102R, G105A, V107L, V109L, S110A
B19: WNb 280 (VHH)
VHH: QVQLQESGGGLVQAGGSLRLSCAASGRTFSNYFMGWFRQAPGKEREFVAAISWSGGSTYYTDSVKGRFTISRDNAKNTVYLQMNSLKPEDTAVYYCAGGLDMGWSRVNLGEYDYWGQGTQVTVSS
B20: WNb 279 (VHH)
VHH: B19 VHH with A14P, N31D, S52T, N108A
B21: WNbFc 293 (Fc fusion)
chain: B15 VHH with L11S, G16D, A23V, M34L, Q39R, G61A, Q99L, G100W, F106Y, A111S
notes: also called WNb 293-Fc; WNb 293-Fc fusion; source: Expi293F, transfected, purified from supernatant (MabSelect Prism A, SEC)
B22: WNbFc 294 (Fc fusion)
chain: B15 VHH
notes: source: Expi293F, transfected, purified from supernatant (MabSelect Prism A, SEC)

One assay has as its target T1, OC43 S1B+C (S1B and S1C domains of the …). The assay is described as follows: BLI. The settings on record: both partners purified.
Usually Kd stands for the constant that tells how readily two partners part at equilibrium. A lower Kd goes with a tighter complex. In general, koff refers to the rate constant with which the complex falls apart. High values mean fast dissociation, low ones slow dissociation. As a reminder, the kon is the rate constant with which the complex forms. The low end stands for slower complex formation, the high end for faster complex formation. Molecule B1 registered a Kd of 2.46 nM, a koff of 0.000195 s⁻¹ and a kon of 79000 M⁻¹ s⁻¹.

Regarding B2, binding was characterised by a dissociation constant (Kd) of 4.01 nM, the koff came to 0.000363 s⁻¹ and the kon was 91000 M⁻¹ s⁻¹.

B3: the Kd turned out to be 5.93 nM, the koff amounted to 0.0004 s⁻¹ and the kon amounted to 68000 M⁻¹ s⁻¹.

Molecule B4 returned a dissociation constant Kd of 15.6 nM, a koff of 0.00116 s⁻¹ and an on-rate (kon) of 75000 M⁻¹ s⁻¹.

The molecule B5 returned a Kd of 15.3 nM, a koff of 0.000786 s⁻¹ and a kon of 51000 M⁻¹ s⁻¹.

Consider B6, for which the dissociation constant (Kd) was found to be 4.73 nM, the koff was 0.000629 s⁻¹ and the kon came to 132000 M⁻¹ s⁻¹.

In the case of B7, the Kd stood at 58.8 nM, the off-rate constant (koff) is 0.00245 s⁻¹ and the kon was determined as 42000 M⁻¹ s⁻¹.

Turning to B8, the Kd amounted to 11.2 nM, the koff amounted to 0.000933 s⁻¹ and the kon was 84000 M⁻¹ s⁻¹.

On to B9, for which the Kd stood at 9.9 nM, the koff worked out at 0.00103 s⁻¹ and the kon came out at 104000 M⁻¹ s⁻¹.

Take B10: binding was characterised by a dissociation constant (Kd) of 21.4 nM, the koff stood at 0.00199 s⁻¹ and the kon is 93000 M⁻¹ s⁻¹.

Molecule B11 registered a Kd of 8.94 nM, a koff of 0.000987 s⁻¹ and a kon of 111000 M⁻¹ s⁻¹.

For the molecule B12, the dissociation constant Kd amounted to 6.46 nM, the koff turned out to be 0.000518 s⁻¹ and the kon amounted to 82000 M⁻¹ s⁻¹.

As to B13, the Kd stood at 4.23 nM, the off-rate constant (koff) was 0.000447 s⁻¹ and the association rate constant (kon) is 106000 M⁻¹ s⁻¹.

Molecule B14 had a dissociation constant (Kd) of 11.7 nM, a koff of 0.000527 s⁻¹ and a kon of 45000 M⁻¹ s⁻¹.

With B15, the Kd was found to be 26 nM, the koff amounted to 0.00106 s⁻¹ and the kon is 41000 M⁻¹ s⁻¹.

The molecule B16 showed a Kd of 4.6 nM, a koff of 0.000417 s⁻¹ and a kon of 91000 M⁻¹ s⁻¹.

Consider B17, for which binding was put at a Kd of 1.55 nM, the dissociation rate constant (koff) was found to be 0.000183 s⁻¹ and the kon is 118000 M⁻¹ s⁻¹.

B18 had a dissociation constant Kd of 19.6 nM, a koff of 0.00124 s⁻¹ and a kon of 64000 M⁻¹ s⁻¹.

Take B19: binding was put at a Kd of 22.9 nM, the koff was 0.00161 s⁻¹ and the kon turned out to be 70000 M⁻¹ s⁻¹.

In the case of B20, the equilibrium dissociation constant (Kd) amounted to 149 nM, the koff was determined as 0.0086 s⁻¹ and the kon came out at 58000 M⁻¹ s⁻¹.

For a further assay the target is unchanged.
Test: not given
The settings on record: both partners purified.
With B21, the Kd was 7.51 nM, the koff turned out to be 0.000758 s⁻¹ and the kon amounted to 101000 M⁻¹ s⁻¹.

Molecule B22 yielded a Kd of 36.9 nM, a koff of 0.00164 s⁻¹ and a kon of 45000 M⁻¹ s⁻¹.
